# Data reported in publication PMC5040827.
# Target: MD39-10MUT
# Experiment: SPR
# Details: not given
row,Kd [µM],Substance
1,0.0008,PGT121
2,0.035,PGT151
3,0.006,PGDM1400
4,0.142,VRC01
5,0.003,PGT128

# Target: PGT121
# Experiment: SPR
# Details: average of two or three experiments
row,Substance,Kd [µM]
1,BG505 T332N gp120 5MUT (V134Y; N136P; I138L; D140N; one further mutation not printed),0.0057

# Target: GL_(CDR3rev4)
# Experiment: SPR
# Details: average of two or three experiments
row,Substance,Kd [µM]
1,BG505 T332N gp120 10MUT (T135A; T139I; V134Y; N136P; I138L; D140N; N137F; T320F; Q328M; one further mutation not printed),> 150
2,BG505 T332N gp120 5MUT (V134Y; N136P; I138L; D140N; one further mutation not printed),> 34
3,BG505 T332N gp120 7MUT (T135A; T139I; V134Y; N136P; I138L; D140N; one further mutation not printed),> 36
4,BG505 T332N gp120 3MUT (T135A; T139I; one further mutation not printed),> 28
